Earlier results on one substance are cited in PMC12188314.

The data set addresses Rab27A (Mus musculus) (UniProt Q9ERI2).
UniProt Q9ERI2, sequence (Q9ERI2 2-221): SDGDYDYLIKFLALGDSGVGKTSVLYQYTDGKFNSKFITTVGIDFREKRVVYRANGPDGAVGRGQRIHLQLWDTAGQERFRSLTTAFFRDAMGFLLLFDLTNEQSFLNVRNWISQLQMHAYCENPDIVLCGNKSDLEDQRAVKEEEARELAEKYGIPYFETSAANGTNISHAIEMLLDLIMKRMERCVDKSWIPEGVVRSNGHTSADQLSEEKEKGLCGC

Turning to Slp2-a SHD (from UniProt Q99N50), the Kd (in general, the equilibrium constant for the complex coming apart) is 13 nM.
